Assay results as given in patent US20220242939A1 (BIOARCTIC, published 2022).
Non-standard residues stand in square brackets, D forms with d. No end group written: not given here. Ahx = NCCCCCC(=O)O

Assays:
[1] = molecular target: 6F4, monoclonal anti-L198 antibody; experiment: inhibition ELISA; antibody at 0.05 ug/ml pre-incubated with the peptide in solution (4-fold dilutions from 10000 ng/ml), then on a plate coated with L198-BSA peptide; blank reduced OD 405 nm
Protocol: (§1) 0.5 μg/ml solution of N-terminal neo-epitope peptide L198 (SEQ ID NO:52) conjugated to BSA was prepared by dilution in PBS. 50 μl/well were added to an ELISA half-area 96 well microtiter plate, the plate was sealed with adhesive sealer and incubated over night at 4° C. After discarding the solution, the plates were blocked with protein-free blocking solution (Pierce) (150 μl/well) at room temperature for 90 min with shaking (900 rpm). The blocked plate was washed four times with washing buffer containing 0.28 mM NaH₂PO₄, 2.5 mM Na₂HPO₄, 150 mM NaCl, 0.1% TWEEN®-20 and 0.0075% Kathon CG.
(§2) Serial dilutions of each synthetic ApoE peptide were prepared by 4-fold dilution starting from 10000 ng/ml in 96 well storage plates (30 μl final volume). Each recombinant antibody to be tested was added (30 μl) to the serial dilutions of each of the synthetic ApoE peptides at a final concentration of 0.05 μg/ml per well. Samples were pre-incubated for 45 min at room temperature with shaking (900 rpm).
(§3) The pre-incubated samples were transferred (50 μl/well) to the blocked ELISA plates, and plates were incubated for 10 min at room temperature without shaking. Plates were washed as described above. Alkaline phosphatase conjugated anti-mouse IgG detection antibody (Mabtech, cat. no. 3310-4) was diluted 1:1000 and added to each plate (50 μl/well). The plate was sealed and incubated with shaking (900 rpm) for 45 min at room temperature and subsequently washed as described above. Alkaline phosphatase substrate (50 μl/well) was added to the plate and the optical density was read every 10 min at a wavelength of 405 nm for up to 120 min. The IC50 values were determined from a log inhibitor concentration response curve (FIG. 25).

[2] = molecular target: 15F8, monoclonal anti-L198 antibody; experiment: as above
15F8, monoclonal anti-L198 antibody, sequence (VH, as listed by the source, chain 1 of 2): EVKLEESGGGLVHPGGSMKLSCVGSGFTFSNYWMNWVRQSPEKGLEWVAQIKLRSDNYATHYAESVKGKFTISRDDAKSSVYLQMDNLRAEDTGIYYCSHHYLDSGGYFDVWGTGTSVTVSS
15F8, monoclonal anti-L198 antibody, sequence (VL, as listed by the source, chain 2 of 2): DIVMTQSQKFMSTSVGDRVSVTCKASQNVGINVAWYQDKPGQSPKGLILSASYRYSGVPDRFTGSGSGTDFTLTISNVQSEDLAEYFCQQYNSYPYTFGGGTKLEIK
Protocol: as §1, §2, §3

[3] = molecular target: T1, 7B10, recombinant IgG2c antibody; experiment: inhibition ELISA 2nd protocol: antigen in solution varied, antibody 7B10, plate coated with G200-BSA peptide
T1 construct: also called 7610
T1 sequence (VH, as listed by the source, chain 1 of 2): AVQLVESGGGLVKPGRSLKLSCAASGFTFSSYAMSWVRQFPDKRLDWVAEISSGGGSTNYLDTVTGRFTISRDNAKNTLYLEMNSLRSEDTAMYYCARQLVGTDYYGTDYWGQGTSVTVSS
T1 sequence (VL, as listed by the source, chain 2 of 2): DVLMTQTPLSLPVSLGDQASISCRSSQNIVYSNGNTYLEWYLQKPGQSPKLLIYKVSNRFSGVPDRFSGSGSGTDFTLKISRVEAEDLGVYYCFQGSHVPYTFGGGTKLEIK
Protocol: as §2, with “[…]” for “Serial”, “peptide, recombinant C-terminal ApoE fragment G200-HIS and full-length ApoE4” for “peptide”, “1000” for “10000”, “peptides, G200-HIS or full-length ApoE4” for “peptides”
as §3, with “for 25” for “for 10”, “every 15” for “every 10”, “(FIG. 17). […]” for “(FIG. 25).”

[4] = molecular target: 17G4, recombinant IgG2c antibody; experiment: inhibition ELISA: antigen in solution varied, antibody 17G4 at 0.05 µg/ml, plate coated with G200-BSA peptide
17G4, recombinant IgG2c antibody, sequence (VH, as listed by the source, chain 1 of 2): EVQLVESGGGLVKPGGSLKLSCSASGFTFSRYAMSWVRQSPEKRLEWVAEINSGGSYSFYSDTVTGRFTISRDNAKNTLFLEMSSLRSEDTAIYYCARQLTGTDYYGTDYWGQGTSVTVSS
17G4, recombinant IgG2c antibody, sequence (VL, as listed by the source, chain 2 of 2): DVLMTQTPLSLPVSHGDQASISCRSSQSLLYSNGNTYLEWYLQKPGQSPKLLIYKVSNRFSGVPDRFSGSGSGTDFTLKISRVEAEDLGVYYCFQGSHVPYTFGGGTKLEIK
Protocol: as §3, with “for 25” for “for 10”, “every 15” for “every 10”, “(FIG. 17).” for “(FIG. 25).”

[5] = molecular target: 23D5, recombinant IgG2c antibody; experiment: inhibition ELISA 2nd protocol: antigen in solution varied, antibody 23D5, plate coated with G200-BSA peptide
23D5, recombinant IgG2c antibody, sequence (VH, as listed by the source, chain 1 of 2): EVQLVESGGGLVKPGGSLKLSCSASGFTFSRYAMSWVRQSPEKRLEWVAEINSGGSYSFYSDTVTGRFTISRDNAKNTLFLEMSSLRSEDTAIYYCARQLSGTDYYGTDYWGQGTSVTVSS
Protocol: as §3, with “for 25” for “for 10”, “every 15” for “every 10”, “(FIG. 17).” for “(FIG. 25).”
(§4) In addition, a second inhibition ELISA with the ApoE peptides conjugated to BSA was run, in which the starting concentration of the antigens in solution was increased 10-fold. i.e. the starting concentration of the N-terminal neo-epitope of synthetic ApoE peptides conjugated to BSA and starting at amino acid L198 (SEQ ID NO:52), A199 (SEQ ID NO:51) or G200 (SEQ ID NO:50), or to BSA-conjugated negative control peptide (SEQ ID NO:53), was 10000 ng/ml. […] IC50 values were determined from a log inhibitor concentration response curve (FIG. 20).

[6] = molecular target: 7C7, recombinant IgG2c antibody; experiment: inhibition ELISA 2nd protocol: antigen in solution varied, antibody 7C7, plate coated with G200-BSA peptide
7C7, recombinant IgG2c antibody, sequence (VH, as listed by the source, chain 1 of 2): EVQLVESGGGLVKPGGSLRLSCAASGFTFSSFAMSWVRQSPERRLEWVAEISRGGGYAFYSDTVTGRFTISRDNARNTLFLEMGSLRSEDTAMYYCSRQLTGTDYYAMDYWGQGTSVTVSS
7C7, recombinant IgG2c antibody, sequence (VL, as listed by the source, chain 2 of 2): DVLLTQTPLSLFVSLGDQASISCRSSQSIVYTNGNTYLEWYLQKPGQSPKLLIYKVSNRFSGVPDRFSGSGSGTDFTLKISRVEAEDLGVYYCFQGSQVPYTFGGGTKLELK
Protocol: as §3, with “for 25” for “for 10”, “every 15” for “every 10”, “(FIG. 17).” for “(FIG. 25).”
as §4

[7] = molecular target: 7C7, recombinant IgG2c antibody; experiment: inhibition ELISA: antigen in solution varied, antibody 7C7 at 0.05 µg/ml, plate coated with G200-BSA peptide
Protocol: as §3, with “for 25” for “for 10”, “every 15” for “every 10”, “(FIG. 17).” for “(FIG. 25).”

[8] = molecular target: 28F2, recombinant IgG2c antibody; experiment: inhibition ELISA 2nd protocol: antigen in solution varied, antibody 28F2, plate coated with G200-BSA peptide
28F2, recombinant IgG2c antibody, sequence (VH, as listed by the source, chain 1 of 2): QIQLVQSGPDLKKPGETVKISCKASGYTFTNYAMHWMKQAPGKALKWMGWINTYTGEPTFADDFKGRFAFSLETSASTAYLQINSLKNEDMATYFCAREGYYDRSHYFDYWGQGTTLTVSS
28F2, recombinant IgG2c antibody, sequence (VL, as listed by the source, chain 2 of 2): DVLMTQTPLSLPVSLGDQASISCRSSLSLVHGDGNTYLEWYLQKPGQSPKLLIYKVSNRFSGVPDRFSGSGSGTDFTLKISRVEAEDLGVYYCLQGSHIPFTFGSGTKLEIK
Protocol: as §2, with “[…]” for “Serial”, “peptide, recombinant C-terminal ApoE fragment G200-HIS and full-length ApoE4” for “peptide”, “1000” for “10000”, “peptides, G200-HIS or full-length ApoE4” for “peptides”
as §3, with “for 25” for “for 10”, “every 15” for “every 10”, “(FIG. 17). […]” for “(FIG. 25).”

[9] = molecular target: 17G4, recombinant IgG2c antibody; experiment: inhibition ELISA 2nd protocol: antigen in solution varied, antibody 17G4, plate coated with G200-BSA peptide
Protocol: as §3, with “for 25” for “for 10”, “every 15” for “every 10”, “(FIG. 17).” for “(FIG. 25).”
as §4

[10] = molecular target: 36A12, monoclonal anti-A199 antibody; experiment: inhibition ELISA; antibody at 0.05 ug/ml pre-incubated with the peptide in solution (4-fold dilutions from 10000 ng/ml), then on a plate coated with A199-BSA peptide; blank reduced OD 405 nm
36A12, monoclonal anti-A199 antibody, sequence (VH, as listed by the source, chain 1 of 2): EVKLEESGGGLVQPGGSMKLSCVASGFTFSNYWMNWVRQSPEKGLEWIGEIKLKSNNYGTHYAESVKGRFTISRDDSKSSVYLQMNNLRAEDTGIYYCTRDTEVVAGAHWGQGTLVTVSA
36A12, monoclonal anti-A199 antibody, sequence (VL, as listed by the source, chain 2 of 2): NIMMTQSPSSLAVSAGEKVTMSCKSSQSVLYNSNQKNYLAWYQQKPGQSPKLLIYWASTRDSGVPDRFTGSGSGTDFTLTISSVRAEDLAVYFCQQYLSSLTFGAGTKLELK
Protocol: as §1, with “A199” for “L198”, “NO:51)” for “NO:52)”
as §2, with “purified monoclonal” for “recombinant”
as §3, with “29).” for “25).”

[11] = molecular target: 38G9, monoclonal anti-A199 antibody; experiment: as above
38G9, monoclonal anti-A199 antibody, sequence (VH, as listed by the source, chain 1 of 2): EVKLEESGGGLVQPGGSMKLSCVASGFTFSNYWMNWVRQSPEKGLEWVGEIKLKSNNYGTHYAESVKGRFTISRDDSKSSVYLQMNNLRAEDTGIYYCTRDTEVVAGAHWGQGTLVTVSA
38G9, monoclonal anti-A199 antibody, sequence (VL, as listed by the source, chain 2 of 2): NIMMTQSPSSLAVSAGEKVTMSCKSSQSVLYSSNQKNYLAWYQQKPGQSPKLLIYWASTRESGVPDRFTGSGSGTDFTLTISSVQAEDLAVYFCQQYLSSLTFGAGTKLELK
Protocol: as §1, with “A199” for “L198”, “NO:51)” for “NO:52)”
as §2, with “purified monoclonal” for “recombinant”
as §3, with “29).” for “25).”

[12] = molecular target: 23D5, recombinant IgG2c antibody; experiment: inhibition ELISA: antigen in solution varied, antibody 23D5 at 0.05 µg/ml, plate coated with G200-BSA peptide
Protocol: as §3, with “for 25” for “for 10”, “every 15” for “every 10”, “(FIG. 17).” for “(FIG. 25).”

[13] = molecular target: 28F2, recombinant IgG2c antibody; experiment: inhibition ELISA: antigen in solution varied, antibody 28F2 at 0.05 µg/ml, plate coated with G200-BSA peptide
Protocol: as §2, with “[…]” for “Serial”, “peptide, recombinant C-terminal ApoE fragment G200-HIS and full-length ApoE4” for “peptide”, “1000” for “10000”, “peptides, G200-HIS or full-length ApoE4” for “peptides”
as §3, with “for 25” for “for 10”, “every 15” for “every 10”, “(FIG. 17).” for “(FIG. 25).”

[14] = molecular target: T1, 7B10, recombinant IgG2c antibody; experiment: inhibition ELISA: antigen in solution varied, antibody 7B10 at 0.05 µg/ml, plate coated with G200-BSA peptide
Protocol: as §3, with “for 25” for “for 10”, “every 15” for “every 10”, “(FIG. 17).” for “(FIG. 25).”

6F4, monoclonal anti-L198 antibody, sequence (VH, as listed by the source, chain 1 of 2): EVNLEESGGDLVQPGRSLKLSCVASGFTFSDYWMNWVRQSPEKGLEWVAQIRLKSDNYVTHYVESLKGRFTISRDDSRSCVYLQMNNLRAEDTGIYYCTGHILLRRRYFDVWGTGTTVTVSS
6F4, monoclonal anti-L198 antibody, sequence (VL, as listed by the source, chain 2 of 2): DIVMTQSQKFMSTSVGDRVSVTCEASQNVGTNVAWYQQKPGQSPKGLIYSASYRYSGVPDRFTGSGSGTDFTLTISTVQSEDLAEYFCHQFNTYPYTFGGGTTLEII

B1: G200 N-terminal neo-epitope peptide GQPLQE-Acp-C (SEQ ID NO:50) conjugated to BSA (peptide)
peptide: GQPLQE[Ahx]C
modifications: not fully specified (residue 8); printed as GQPLQE-Acp-C; also: C-terminal Cys conjugated to BSA carrier
notes: also called G200-BSA peptide; G200-peptide
- binding result [1]: no binding (tested: 10000 ng/ml)
- binding result [2]: no binding (tested: 10000 ng/ml)
- IC50 [3]: 5.8 ng/mL
- IC50 [4]: 2.9 ng/mL
- IC50 [5]: 3.8 ng/mL
- IC50 [6]: 6.3 ng/mL
- IC50 [7]: 3.1 ng/mL
- IC50 [8]: 3.7 ng/mL
- IC50 [9]: 5.8 ng/mL
- binding result [10]: no binding (tested: 10000 ng/ml)
- binding result [11]: no binding (tested: 10000 ng/ml)
- IC50 [12]: 2.8 ng/mL
- IC50 [13]: 3.2 ng/mL
- IC50 [14]: 2.2 ng/mL
